# Test results taken from patent US20250011433A1 (GLIKNIK, published 2025).
# Residue numbers refer to the chain shown, from its start. In names and notes the source's numbering stands.
# T1: FcγRIIb (UniProt P31994 46-217, limits assumed)
# T1 sequence (looked up): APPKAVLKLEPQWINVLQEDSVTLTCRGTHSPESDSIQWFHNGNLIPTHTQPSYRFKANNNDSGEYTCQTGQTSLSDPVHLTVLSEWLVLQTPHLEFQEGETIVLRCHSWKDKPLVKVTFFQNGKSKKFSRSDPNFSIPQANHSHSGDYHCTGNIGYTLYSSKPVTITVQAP
# B1: G1044 (Fc fusion)
# chain: EPKSCDKTHTCPPCPAPELLGGDSVFLFPPKPKDTLMISRTPEVTCVVVCVEFEDPEVKFNWYVDGVEVHNAKTKPREEQYNSTYRVVSVLTVLHQDWLNGKEYKCKVTNKALPAPIEKTISKAKGQPREPQVYTLPPSRDELTKNQVSLTCLVKGFYPSDIAVEWESNGQPENNYKTTPPVLDSDGSFFLYSKLTVDKSRWQQGNVFSCSVMHEALHNHYTQKSLSLSPGKERKCCVECPPCP
# B2: G1001 (Fc fusion)
# chain: ERKCCVECPPCPEPKSCDKTHTCPPCPAPELLGGPSVFLFPPKPKDTLMISRTPEVTCVVVDVEFEDPEVKFNWYVDGVEVHNAKTKPREEQYASTYRVVSVLTVLHQDWLNGKEYKCKVTNKALPAPIEKTISKAKGQPREPQVYTLPPSREEMTKNQVSLTCLVKGFYPSDIAVEWESNGQPENNYKTTPPVLDSDGSFFLYSKLTVDKSRWQQGNVFSCSVMHEALHNHYTQKSLSLSPGK
# notes: G019 background, S267E/H268F/S324T/N297A
# B3: G1048 (Fc fusion)
# chain: B2 chain with G33R, A94N, L125F
# notes: G019 background, G236R/L328F/S267E/H268F/S324T
# B4: G1109 (Fc fusion)
# chain: B1 chain with E18P, D23P, C50D
# notes: G045c background, E233P/S267E/H268F/S324T; leader 1-20 cleaved
# B5: G1071d2 (Fc fusion)
# chain: B1 chain with D23P, C50D, E52S, T84A
# notes: G045c background, H268F/S324T/T299A; leader 1-20 cleaved
# B6: G1070 (Fc fusion)
# chain: B1 chain with D23P, C50D, E52K, N82A
# notes: G045c background, S267K/H268F/S324T/N297A; leader 1-20 cleaved
# B7: G1084 (Fc fusion)
# chain: B1 chain with E18P, D23P, C50D, E52K
# notes: G045c background, E233P/S267K/H268F/S324T; leader 1-20 cleaved
# B8: G1093 (Fc fusion)
# chain: B1 chain with D23P, C50D, E52K, T84A
# notes: G045c background, S267K/H268F/S324T/T299A; leader 1-20 cleaved
# B9: G1096 (Fc fusion)
# chain: B1 chain with D23P, C50D, E52R, T84A
# notes: G045c background, S267R/H268F/S324T/T299A; leader 1-20 cleaved
# B10: G1100 (Fc fusion)
# chain: B1 chain with E18P, D23P, C50D, E52R
# notes: G045c background, E233P/S267R/H268F/S324T; leader 1-20 cleaved
# B11: G1112 (Fc fusion)
# chain: B1 chain with E18P, G21R, D23P, C50D, E52R
# notes: G045c background, E233P/G236R/S267R/H268F/S324T; leader 1-20 cleaved
# B12: G1116 (Fc fusion)
# chain: B1 chain with E18P, G21H, D23P, C50D, E52K
# notes: G045c background, E233P/G236H/S267K/H268F/S324T; leader 1-20 cleaved
# B13: G1119 (Fc fusion)
# chain: B1 chain with E18P, G21R, D23P, C50D, E52K
# notes: G045c background, E233P/G236R/S267K/H268F/S324T; leader 1-20 cleaved
# B14: G1123 (Fc fusion)
# chain: B1 chain with E18P, G21Q, D23P, C50D, E52R
# notes: G045c background, E233P/G236Q/S267R/H268F/S324T; leader 1-20 cleaved
# B15: G1132 (Fc fusion)
# chain: B1 chain with D23P, C50D, E52R, N82A
# notes: G045c background, S267R/H268F/S324T/N297A; leader 1-20 cleaved
# B16: G1006 (Fc fusion)
# chain: B1 chain with D23P, C50A
# notes: G045c background, D265A/S267E/H268F/S324T; leader 1-20 cleaved
# B17: G1025 (Fc fusion)
# chain: B1 chain with C50D
# notes: G045c background, P238D/S267E/H268F/S324T; leader 1-20 cleaved
# B18: G1027 (Fc fusion)
# chain: B1 chain with C50D, N82A
# notes: G045c background, P238D/S267E/H268F/N297A/S324T; leader 1-20 cleaved
# B19: G1042 (Fc fusion)
# chain: B1 chain with E18P, G21R, D23P, C50D, L113F
# notes: G045c background, E233P/G236R/S267E/H268F/S324T/L328F; leader 1-20 cleaved
# B20: G1043 (Fc fusion)
# chain: B1 chain with C50G, D141E, L143M
# notes: G045c background, P238D/D265G/S267E/H268F/S324T; leader 1-20 cleaved
# B21: G1046 (Fc fusion)
# chain: B1 chain with C50W, D141E, L143M
# notes: G045c background, P238D/D265W/S267E/H268F/S324T; leader 1-20 cleaved
# B22: G1032 (Fc fusion)
# chain: B1 chain with L19A, L20A, D23P, C50D
# notes: G045c background, L234A/L235A/S267E/H268F/S324T; leader 1-20 cleaved
# B23: G997 (Fc fusion)
# chain: B1 chain with D23P, C50D
# notes: G045c background, S267E/H268F/S324T; leader 1-20 cleaved
# B24: G1003 (Fc fusion)
# chain: B2 chain with A94N
# notes: G019 background, S267E/H268F/S324T; leader 1-20 cleaved
# B25: G1049 (Fc fusion)
# chain: B2 chain with A94N, L125F, E153D, M155L
# notes: G019 background, S267E/H268F/S324T/L328F; leader 1-20 cleaved
# Molecular target: T2, C1q (UniProt P02745 23-245; P02746 28-253; P02747 29-245)
# T2 construct: bought C1q coated on ELISA plates at 1 µg/ml; also called complement C1q; complement factor C1q
# T2 sequence (P02745 23-245 limits assumed, chain 1 of 3): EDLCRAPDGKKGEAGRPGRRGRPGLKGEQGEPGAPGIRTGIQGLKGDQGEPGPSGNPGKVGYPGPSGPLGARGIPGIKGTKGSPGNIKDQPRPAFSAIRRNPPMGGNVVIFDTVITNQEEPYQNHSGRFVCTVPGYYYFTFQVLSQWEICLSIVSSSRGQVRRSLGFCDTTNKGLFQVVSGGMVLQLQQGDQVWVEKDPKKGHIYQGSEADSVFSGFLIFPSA
# T2 sequence (P02746 28-253 limits assumed, chain 2 of 3): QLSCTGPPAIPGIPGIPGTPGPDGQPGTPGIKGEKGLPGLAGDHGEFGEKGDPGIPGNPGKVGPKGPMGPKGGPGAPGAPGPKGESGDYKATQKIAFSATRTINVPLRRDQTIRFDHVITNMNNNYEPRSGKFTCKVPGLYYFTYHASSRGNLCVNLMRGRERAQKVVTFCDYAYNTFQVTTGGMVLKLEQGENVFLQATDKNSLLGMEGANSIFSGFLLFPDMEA
# T2 sequence (P02747 29-245 limits assumed, chain 3 of 3): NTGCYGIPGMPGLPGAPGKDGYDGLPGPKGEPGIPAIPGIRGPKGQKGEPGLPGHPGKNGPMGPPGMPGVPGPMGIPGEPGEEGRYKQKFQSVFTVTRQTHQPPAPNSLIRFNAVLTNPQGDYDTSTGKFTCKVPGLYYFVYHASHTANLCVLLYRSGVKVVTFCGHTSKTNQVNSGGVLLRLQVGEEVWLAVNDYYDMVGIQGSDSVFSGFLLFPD
# Assay: ELISA on coated C1q
row,Binder,binding result
1,B1,no binding
2,B2,no binding
3,B3,no binding

# Molecular target: T1, FcγRIIb
# Assay: BLI (Octet)
# Procedure: (§1) Binding of complement-preferential stradomers or parent stradomer G045c to FcγRI, FcγRIIb, FcγRIIIa, FcγRIIa, or FcRn was assessed. RU values of dissociation were measured by biolayer interferometry using a ForteBio Octet instrument. His-tagged receptor proteins were bound to the sensor tip in 1× kinetic analysis buffer from ForteBio after which the on rate of the receptor/protein was measured by transferring the sensor tip to a 1× kinetics buffer containing the purified stradomer of choice. Off rate was measured by transferring the sensor tip to a 1× kinetics buffer, and RU value was calculated from the measured maximum binding using the ForteBio software. Biolayer interferometry detects the binding between a ligand immobilized on the biosensor tip surface and an analyte in solution. When binding occurs it produces an increase in optical thickness at the biosensor tip, which results in a wavelength shift (detected as a response unit of “RU”). The maximum binding level (RU max) is the maximum possible amount of sample binding at equilibrium that saturates the amount of ligand on the sensor surface. The RU 300 is the residual sample binding after 300 seconds of dissociation and is useful to characterize the rate of dissociation of the test article from the test ligand.
# (§2) For each stradomer in Tables 5-9, the level of canonical FcγR binding, complement C1q binding, and CDC inhibition were determined according to the methods described in Example 1.
row,Binder,binding result
1,B4,binds
2,B5,binds

# Molecular target: T3, FcγRI (UniProt P12314 16-288)
# T3 construct: also called CD64
# T3 sequence (P12314 16-288 limits assumed): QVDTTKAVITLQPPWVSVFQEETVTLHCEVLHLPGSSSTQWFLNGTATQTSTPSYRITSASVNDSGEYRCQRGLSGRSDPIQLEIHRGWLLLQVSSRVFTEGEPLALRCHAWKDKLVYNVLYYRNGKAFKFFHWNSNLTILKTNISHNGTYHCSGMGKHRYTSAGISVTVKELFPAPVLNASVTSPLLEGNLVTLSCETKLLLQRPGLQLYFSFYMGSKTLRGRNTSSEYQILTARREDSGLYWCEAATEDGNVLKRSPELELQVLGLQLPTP
# Assay: BLI (Octet)
# Procedure: as §1, §2
row,Binder,binding result
1,B4,binds
2,B6,binds
3,B5,binds
4,B7,binds
5,B8,binds
6,B9,binds
7,B10,binds
8,B11,binds
9,B12,binds
10,B13,binds
11,B14,binds
12,B15,binds

# Molecular target: T2, C1q
# Assay: ELISA on coated C1q
# Remark: another data set of the same source
# Procedure: (§3) For C1q binding, 96 well plates were coated with C1q (Sigma Cat #: C1740 1 μg/ml) overnight in PBS. After coating, plates were washed 3 times with standard wash buffer (iX PBS+0.05% Tween 20) and blocked with blocking buffer (1% BSA+1× PBS+0.05% Tween 20) for 2 hours at RT. Following blocking, plates were incubated with compound diluted in blocking buffer 100 μL/well and washed 3 times with standard washing buffer. C1q-bound compound was detected by incubation with 1:5000 biotinylated mouse anti-human IgG1(Cat #555869, BD Biosciences) and Streptavidin-HRP (Cat #: 7100-05 Southern Biotech) (100 μl/well) for 1 hour at room temperature followed by washing 3 times with washing buffer, after which color was developed using the standard TMB method according to manufacturer's protocol for 15 minutes. Absorbance was read at 450 nm.
# as §2
row,Binder,binding result
1,B4,binds
2,B6,binds
3,B5,binds
4,B7,binds
5,B8,binds
6,B9,binds
7,B10,binds
8,B11,binds
9,B12,binds
10,B13,binds
11,B14,binds
12,B15,binds

# Molecular target: FcγRIIIa (UniProt P08637 17-208)
# Sequence (P08637 17-208 limits assumed): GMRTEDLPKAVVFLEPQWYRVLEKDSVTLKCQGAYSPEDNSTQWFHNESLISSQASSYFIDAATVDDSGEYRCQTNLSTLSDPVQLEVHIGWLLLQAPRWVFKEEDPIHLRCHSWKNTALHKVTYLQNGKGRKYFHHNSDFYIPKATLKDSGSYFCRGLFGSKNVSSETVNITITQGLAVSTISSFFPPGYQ
# Assay: BLI (Octet); legend: - indicates no binding
# Procedure: as §1
row,Binder,binding result
1,B16,no binding
2,B17,no binding
3,B18,no binding
4,B19,no binding
5,B20,no binding
6,B21,no binding

# Molecular target: T2, C1q
# Assay: ELISA on coated C1q
# Remark: another data set of the same source
# Procedure: as §3
row,Binder,binding result
1,B16,binds
2,B17,binds
3,B18,binds
4,B22,binds
5,B19,binds
6,B20,binds
7,B21,binds
8,B23,binds
9,B24,binds
10,B25,binds

# Molecular target: T1, FcγRIIb
# Assay: BLI (Octet)
# Remark: another data set of the same source
# Procedure: as §1
row,Binder,binding result
1,B16,binds
2,B17,binds
3,B18,binds
4,B22,binds
5,B19,binds
6,B20,binds
7,B23,binds
8,B24,binds
9,B25,binds

# Molecular target: T3, FcγRI
# Assay: BLI (Octet)
# Remark: another data set of the same source
# Procedure: as §1
row,Binder,binding result
1,B16,binds
2,B17,binds
3,B18,binds
4,B22,binds
5,B19,binds
6,B20,binds
7,B21,binds
8,B23,binds
9,B24,binds
10,B25,binds

# Molecular target: T3, FcγRI
# Assay: BLI (Octet)
# Remark: another data set of the same source
row,Binder,binding result
1,B1,binds
2,B2,binds
